Reference: patent US20240392251A1, “CULTURE MEDIUM AND CULTURE METHOD FOR LUNG CANCER EPITHELIAL CELLS, AND APPLICATION THEREOF” (PRECEDO PHARMACEUTICALS CO., LTD, priority 2021, published 2024)

Assays:
[1] = tested on: lung cancer cells (No. B18); test: Effects of different factors added to basic medium BM on proliferation of primary lung cancer cells; type: cell-based, human; conditions: factor added to BM at the concentrations of Table 3; 12 days of culture; FIGS. 1A-1D
Procedure: Extracellular matrix gel (Matrigel®) (manufactured by Corning) was diluted with serum-free DMEM/F12 medium at a ratio of 1:100 to prepare an extracellular matrix diluent. The extracellular matrix diluent was added to a 48-well culture plate with 500 μl/well to completely cover the bottom of the wells of the culture plate. The culture plate was let stand for 1 hour in a 37° C. incubator. After 1 hour, the extracellular matrix diluent was removed to provide a Matrigel-coated plate.
Preparation of basic medium (abbreviated as BM): BM was prepared by adding 0.2 vol. % of Primocin (purchased from Invivogen, with a concentration of 50 mg/ml) to the commercial DMEM/F-12 medium to provide a final concentration of 100 μg/ml.
Next, different kinds and concentrations of additive factors (Table 3) were added to the basic medium (BM), so as to prepare culture mediums for lung cancer epithelial cells containing different additive components.
The culture mediums with different components were added at a volume of 500 μl/well to 48-well plates which were coated with extracellular matrix gel (Matrigel). Lung cancer cells (No. B18) isolated from lung cancer tissues according to the same method as described in Example 1 were inoculated at a cell density of 2×10^4 cells/cm^2 in the above-mentioned 48-well culture plates which were coated with Matrigel. […]

[2] = tested on: lung cancer epithelial cells (Sample No. B26); test: Effects of different concentrations of the additive factors on proliferation of primary lung cancer cells; type: cell-based, human; conditions: added to No. 8 medium lacking the factor; cell number ratio to Blank Control; FIGS. 3A-3H
Procedure: Extracellular matrix gel (Matrigel®) was diluted with serum-free DMEM/F12 medium at a ratio of 1:100 to prepare an extracellular matrix diluent. The extracellular matrix diluent was added to a 48-well culture plate with 200 μl/well to completely cover the bottom of the wells of the culture plate. The culture plate was let stand for 1 hour in a 37° C. incubator. After 1 hour, the extracellular matrix diluent was removed to provide a Matrigel-coated plate.
No. 8 culture medium for primary lung cancer epithelial cells was prepared.
Lung cancer epithelial cells derived from cancer tissues were isolated from the cancer tissue of a lung cancer patient (Sample No. B26) using the same method as in Example 1. Next, lung cancer epithelial cells derived from cancer tissues were counted with a flow imaging counter (JIMBIO FIL, Jiangsu Jimbio Technology Co., Ltd.) to get the total number of cells. Then, the cells were inoculated at a density of 4×10^4 cells/cm^2 in a 48-well plate which was coated with Matrigel®. […] The centrifuged cell pellet was resuspended in the basic medium BM and the cells were counted with a flow imaging counter (JIMBIO FIL, Jiangsu Jimbio Technology Co., Ltd.) to get the total number of cells. […]

B1: epidermal growth factor: growth factor from Sino Biological Inc. (protein, UniProt P01133 23-1207, looked up)
Pro-epidermal growth factor: PQHWSCPEGTLAGNGNSTCVGPAPFLIFSHGNSIFRIDTEGTNYEQLVVDAGVSVIMDFHYNEKRIYWVDLERQLLQRVFLNGSRQERVCNIEKNVSGMAINWINEEVIWSNQQEGIITVTDMKGNNSHILLSALKYPANVAVDPVERFIFWSSEVAGSLYRADLDGVGVKALLETSEKITAVSLDVLDKRLFWIQYNREGSNSLICSCDYDGGSVHISKHPTQHNLFAMSLFGDRIFYSTWKMKTIWIANKHTGKDMVRINLHSSFVPLGELKVVHPLAQPKAEDDTWEPEQKLCKLRKGNCSSTVCGQDLQSHLCMCAEGYALSRDRKYCEDVNECAFWNHGCTLGCKNTPGSYYCTCPVGFVLLPDGKRCHQLVSCPRNVSECSHDCVLTSEGPLCFCPEGSVLERDGKTCSGCSSPDNGGCSQLCVPLSPVSWECDCFPGYDLQLDEKSCAASGPQPFLLFANSQDIRHMHFDGTDYGTLLSQQMGMVYALDHDPVENKIYFAHTALKWIERANMDGSQRERLIEEGVDVPEGLAVDWIGRRFYWTDRGKSLIGRSDLNGKRSKIITKENISQPRGIAVHPMAKRLFWTDTGINPRIESSSLQGLGRLVIASSDLIWPSGITIDFLTDKLYWCDAKQSVIEMANLDGSKRRRLTQNDVGHPFAVAVFEDYVWFSDWAMPSVMRVNKRTGKDRVRLQGSMLKPSSLVVVHPLAKPGADPCLYQNGGCEHICKKRLGTAWCSCREGFMKASDGKTCLALDGHQLLAGGEVDLKNQVTPLDILSKTRVSEDNITESQHMLVAEIMVSDQDDCAPVGCSMYARCISEGEDATCQCLKGFAGDGKLCSDIDECEMGVPVCPPASSKCINTEGGYVCRCSEGYQGDGIHCLDIDECQLGEHSCGENASCTNTEGGYTCMCAGRLSEPGLICPDSTPPPHLREDDHHYSVRNSDSECPLSHDGYCLHDGVCMYIEALDKYACNCVVGYIGERCQYRDLKWWELRHAGHGQQQKVIVVAVCVVVLVMLLLLSLWGAHYYRTQKLLSKNPKNPYEESSRDVRSRRPADTEDGMSSCPQPWFVVIKEHQDLKNGGQPVAGEDGQAADGSMQPTSWRQEPQLCGMGTEQGCWIPVSSDKGSCPQVMERSFHMPSYGTQTLEGGVEKPHSLLSANPLWQQRALDPPHQMELTQ
modifications: Pro-epidermal growth factor
**Q.** How did the “effect on cell proliferation (ratio of number of cells to that in basic medium BM)” value [1] turn out when B1 was run?
**A.** certain promoting effects on cell proliferation in specific concentration ranges

**Q.** And the “amount in the culture medium, most preferably” value [2]?
**A.** 20 ng/mL
